Results from US11066655B2, “RNA polymerase, methods of purification and methods of use” (President and Fellows of Harvard College, priority 2013, dated 2021).

How the values were obtained:
Syn5 promoter = experiment: Cross recognition of promoters, gel transcription assay; type: biochemical, cyanophage Syn5; details: for transcription from a Syn5 promoter: T7 DNA fragment with T7 promoter replaced by Syn5 promoter
Procedure: FIGS. 3A-3C depict characterization of the Syn5 promoter. A) Determination of the 3′-end of Syn5 promoter. 3′-dATP, 3′-dGTP, 3′-dUTP replaced ATP, GTP and UTP, respectively, as chain terminator to sequence the 5′-end of Syn5 RNAP transcript on a template same as template 1 in FIG. 2B. Once the 5′-terminus of the transcript was determined, the sequence preceding it should be the promoter and the 3′-end of the promoter can thus be defined. A 25% TBE-urea gel was used for this assay. B) Cross recognition between Syn5 and T7 transcription systems. Syn5 RNAP synthesizes runoff products on a fragment of T7 DNA provided the T7 promoter is replaced by a Syn5 promoter (lane a). Syn5 RNAP fails to produce transcripts if the first nucleotide downstream of the promoter is changed from G to T (lane b). […] T7 RNAP produces runoff and “N+1” products upon its own promoter (lane e). Sequences of templates can be found in Table 1. C) Schematic showing the identity of the two promoters based on the above data and previous bioinformatics analysis on the Syn5 and P-SSP7 genomes, respectively. Syn5 RNAP transcribes DNA fragments containing a Syn5 promoter to produce transcripts (>1500 for template 1, lane 1; and >200 nt for template 3, lane 3).
For the gel assay results shown in FIGS. 1, 2, 3, and 13, reaction mixtures (20 μl) contained 40 mM Tris-HCl (pH 7.9), 6 mM MgCl2, 2 mM spermidine, 10 mM DTT, 200 µM[…]P, GTP and UTP, 10 µM [[…]-^32P]CTP, 1.5 U/µl RNaseOUT™ recombinant ribonuclease inhibitor (Invitrogen), 100 nM Syn5 or T7 RNAP, and DNA templates as described in the figure legends (either 2 nM phage genomic DNA, 4 nM purified PCR products, or 1 µM synthetic dsDNA fragments). Reaction mixtures were incubated at 24° C. for 30 min. The reaction mixtures described in FIG. 6 contained 40 mM Tris-HCl (pH 8.0), 200 µM[…]P, GTP and UTP, 10 µM [[…]-^32P]CTP, 1.5 U/µl RNaseOUT™, 50 nM Syn5 RNAP, DNA templates, and various amounts of MgCl2, FeCl2, MnCl2 and KCl as described in the figure legends. […] After electrophoresis, gels were dried and analyzed using a Fuji BAS 1000 Bioimaging Analyzer.

[1] = tested on: DNA templates S5P-tDNAR or T7P-tDNAR; experiment: Synthesis of tRNA^Arg at preparative scale, sequencing gel; type: biochemical; details: 200 µl reaction, 37° C.
Procedure: FIGS. 11A-11B depict synthesis of tRNA^Arg by Syn5 and T7 RNA polymerase. A) Synthesis of tRNA^Arg at analytical scale by various amounts of Syn5 and T7 RNA polymerase. Using radioactively labeled CTP, the tRNA^Arg and N+1 product (as marked) produced by 22, 67, 200 nM Syn5 and T7 RNA polymerase at 37° C. are shown. […] The DNA encoding E. coli tRNA^ArgACG is directly downstream of a Syn5 or T7 promoter for the cognate RNA polymerase to synthesize run-off tRNA transcript. B) Synthesis of tRNA^Arg at preparative scale by Syn5 and T7 RNA polymerase. The sequencing gel is showing the analysis of the total RNA products by Syn5 and T7 RNAP at 37° C. in a 200 µl reaction. […]
For the results shown in FIG. 11A, reaction mixtures (10 μl) containing 40 mM Tris-HCl pH 8.0, 6 mM MgCl2, 2 mM spermidine, 10 mM DTT, 200 µM[…]P, GTP and UTP, 10 µM [[…]-^32P]CTP, 1.5 U/µl RNaseOUT™ recombinant ribonuclease inhibitor, 0.5 μM DNA templates S5P-tDNAR or T7P-tDNAR, and various amount of Syn5 or T7 RNAP were incubated at 37° C. for 30 min before adding of one unit of DNase I to each reaction mixture and an additional incubation of 15 min at 37° C. […] After electrophoresis, gels were dried and analyzed using a Fuji BAS 1000 Bioimaging Analyzer. […] RNA quantification was based on OD260 measurement using NANOPHOTOMETER (IMPLEN). […]

T7 RNAP: RNA polymerase encoded by bacteriophage T7, from New England Biolabs [reference compound]
transcription from a Syn5 promoter (Syn5 promoter): does not initiate transcription but does catalyze some non-specific RNA synthesis
N+1 products in total products [1]: more than 50%

B1: Syn5 RNAP: single subunit DNA-dependent RNA polymerase from marine cyanophage Syn5, amino acid sequence SEQ ID NO:23 (protein)
chain: MSFDLIARQLQRETEAAELARKRLQDARREANERSYASSNIESRKAIATFLDPIAQRIGERLFTLRRGTGAVDAAEVYKHLKNADHHHLALITMKTALDVLGKDPEPQIQQLTTAIGRNIQLELRLTYYAEENPELYKQASRFFHAGTGTRQKATVIKLKFNREGIEWDQWSRVTCHKVGQWLMLAMADVTGWIERATDRTSGGRKTKTRICYSREFLQHRDTILAAAEQLAFCQWPMLCPPIEWSNDHNGGYLSEQIRRVNPLIRKTGPLGTRKQGDIPLAMLNNLQGQAYKVNPEVLDIANHCYESNVTVGKFIRHAPLPVPPSPGEDCTEDQLTAYKRARREAEDFNAQISQKNWRTTEVMYVARKYADEASFWMPASFDYRGRVYFLNTALNPQGTDFDKALLYFAEEGPVNEWWLSFHVATTYGLDKETMVNRVQWARDNHELIDRIASDPVRHTEWHDADEPWCFLAACLEYKACVIDGTKQTSGLPIGIDATCSGLQHLAAMTRCGRTAALVNVTPTDKPADAYKTVAQASLKHLPKEQHEWITRKVTKRPVMCTPYGVTMSSARGYIRDQLVKDGHKEDLRSPGVLNGIVKAIFNEAIPEVIPGPVQVMAWLKRSAGQIIDRGDSTITWTTPSGFEVVQDLKKSKTYEVKTRIMGGARIKLQVGDGFTDEPDRDHHKSALAPNVVHSNDASLLHLTFAFWDKPFTVIHDCVLGRSCDMDQMGSDIRLHFAEMYKADVMQDWADQVGVELPVDLIKNTLDIDSVNQSLYFFS
modifications: Amino acid sequence of a cyanophage Syn5 RNAP
first nucleotide after promoter changed from G to T (Syn5 promoter; FIG. 3B lane b): unable to incorporate UTP as the first ribonucleotide
transcription from a Syn5 promoter (Syn5 promoter): produce a run-off product of the expected size
N+1 products in total products [1]: negligible
